This is an account of results in PMC3744807.

For this data set, the target named is PARP-1 F1+F2 (UniProt P09874 1-214). In words: pull-down.
Chain of PARP-1 F1+F2 (P09874 1-214): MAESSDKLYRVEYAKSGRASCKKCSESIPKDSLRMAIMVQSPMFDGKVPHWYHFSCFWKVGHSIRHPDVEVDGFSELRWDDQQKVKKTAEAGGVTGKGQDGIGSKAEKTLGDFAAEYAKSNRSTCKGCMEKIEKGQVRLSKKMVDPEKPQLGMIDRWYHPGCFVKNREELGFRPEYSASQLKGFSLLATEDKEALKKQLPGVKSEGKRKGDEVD

B1: 15 bp duplex, biotinylated (dsDNA)
DNA 1: ACTGCGTTTATGTAT
DNA 2: ATACATAAACGCAGT
For B1, the binding result is on record as “binds”.
